Results on three molecules are retold here after patent publication US20210054062A1 (NEURACLE SCIENCE, published 2021).

Where a chain is given by its changes, count along the chain named.

The target of assay [1] is T1, FAM19A5-rabbit Fc.
T1 construct: also called FAM19A5-rFc
In words: ELISA: FAM19A5-rFc captured on coated anti-rabbit Fc antibody, antibody at 2.8 to 2055 pM, anti-human kappa light chain-HRP, OD450. The table prints R2 of the fit as 1.000. The protocol: (§1) For the ELISA assay, the following protocol was used. Anti-rabbit Fc antibody (diluted to a concentration of 1 μg/mL in 50 mM carbonate buffer, pH 9.6) was used to coat the 96-well plates (100 μL/well) overnight at 4° C. Next, the plates were washed with the washing buffer (PBST: 0.05% Tween-20/PBS) for a total of five washes. The plates were then blocked for 1 hour at 37° C. with the blocking buffer (1% BSA/PBST) (150 μL/well) and washed again with the washing buffer. Then, 50 ng/mL of FAM19A5-rabbit Fc (also called FAM19A5-rFc) antigen diluted in blocking buffer was added to each of the wells. The plates were incubated for an additional hour at 37° C. After the incubation, the plates were washed again for a total of five washes with the washing buffer. The diluted anti-FAM19A5 antibodies in blocking buffer to different concentrations (2055 pM, 685 pM, 228.3 pM, 76.1 pM, 25.4 pM, 8.5 pM, 2.8 pM, 0 pM) were added to each of the wells, and the plates were incubated for 2 hours at 37° C. After the incubation, the plates were washed (total of five washes in the wash buffer) and then, diluted anti-human kappa light chain-HRP (1:10000 in blocking buffer) was added to the well (100 μL/well). […] This reaction was stopped using 100 μL of sulfuric acid (2N H₂SO₄), and the extent of color change was detected via absorption at 450 nm using a 96 well microplate reader (Molecular Device).

Assay [2] deals with T1, FAM19A5-rabbit Fc. In words: ELISA: FAM19A5-rFc captured on coated anti-rabbit Fc antibody, antibody at 2.8 to 2055 pM, anti-human kappa light chain-HRP, OD450. The table prints R2 of the fit as 0.999. The protocol:
as §1

T1 sequence (Q7Z5A7 44-132): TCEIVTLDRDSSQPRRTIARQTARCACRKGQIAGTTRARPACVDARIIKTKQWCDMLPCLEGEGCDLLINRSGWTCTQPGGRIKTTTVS

B1: Reference anti-FAM19A5 antibody ("1-65") (antibody, V domains shown)
VH: AVTLDESGGGLQTPGGALSLVCKASGFTFSSYQMGWVRQAPGKGLEWVGVINKSGSDTSYGSAVKGRATISRDNGQSTVRLQLNNLRAEDTGTYFCAKGSASYITAATIDAWGHGTEVIVSS
VL: ALTQPSSVSANPGETVKITCSGGGSSGYGYGWYQQKSPSSAPLTVIYWNDKRPSDIPSRFSGSKSGSTHTLTITGVQAEDEAVYFCGNDDYSSDSGYVGVFGAGTTLTVL
notes: The ELISA detected it with anti-human kappa light chain-HRP; also called 1-65 antibody; clone 1-65
Take B1: the EC50 in the assay with FAM19A5-rabbit Fc [1] was 0.13 nM.

B2: Anti-FAM19A5 antibody ("SS01-13-s5") (antibody, V domains shown)
VH: B1 VH with S19R, V21S, G49S, V50A, V79L, R80Y, L83M, N85S, G92A, T93V
VL: ALTQPSSVSANPGETARITCSGGASSGYGYGWYQQKPSSAPLTVIYKDSERPSDIPSRFSGSSSGSTHTLTISGVQAEDEAVYFCGNDDYSSDSGYVGVFGAGTTLTVL
notes: The ELISA detected it with anti-human kappa light chain-HRP; also called deimmunized clone 1-65; deimmunized 1-65 antibody
In turn, B2 showed an EC50 with FAM19A5-rabbit Fc [1] of 0.38 nM.

B3: Anti-FAM19A5 antibody ("S5-SG") (antibody, V domains shown)
VH: AVTLDESGGGLQTPGGALRLSCKASGFTFSSYQMGWVRQAPGKGLEWVSAINKGGSDTSYGSAVKGRATISRDNGQSTLYLQMNSLRAEDTAVYFCAKGSASYITAATIDAWGHGTEVIVSS
VL: B2 VL
notes: The ELISA detected it with anti-human kappa light chain-HRP; also called deimmunized clone S5-SG; S5-2.GKNG antibody
In the case of B3, the response with FAM19A5-rabbit Fc [2] was half-maximal at 0.21 nM (EC50).
